Positions count from the first letter of the chain named.
T1: Human CD32b (human, UniProt P31994 46-217, limits assumed)
T1 sequence (looked up): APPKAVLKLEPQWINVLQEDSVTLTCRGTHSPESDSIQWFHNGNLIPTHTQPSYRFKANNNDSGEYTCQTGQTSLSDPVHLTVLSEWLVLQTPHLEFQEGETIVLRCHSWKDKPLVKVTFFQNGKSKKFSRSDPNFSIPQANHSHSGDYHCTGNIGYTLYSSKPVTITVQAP

T2: Human CD32a(H) (human, UniProt P12318 36-218, limits assumed)
T2 sequence (looked up): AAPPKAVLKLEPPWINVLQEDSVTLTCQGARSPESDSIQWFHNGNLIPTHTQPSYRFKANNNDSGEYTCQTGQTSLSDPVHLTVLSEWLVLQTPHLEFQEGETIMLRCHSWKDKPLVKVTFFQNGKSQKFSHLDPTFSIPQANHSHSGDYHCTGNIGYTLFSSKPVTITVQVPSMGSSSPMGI

T3: Cynomolgus CD3E (Acro, CDE-C5226) (cynomolgus, UniProt Q95LI5 22-117, biotinylated (mixed with biotin 1:3))
T3 sequence (looked up): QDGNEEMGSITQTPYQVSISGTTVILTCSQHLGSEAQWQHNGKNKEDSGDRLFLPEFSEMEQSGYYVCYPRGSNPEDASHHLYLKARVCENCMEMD

B1: PR004931 (bispecific antibody)
chain 1: QVQLVQSGAEVKKPGASVKVSCKASGYTFTEFGMNWVRQAPGQGLEWMGWINTKTGEATYVEEFKGRVTFTTDTSTSTAYMELRSLRSDDTAVYYCARWDFAYYVEAMDYWGQGTTVTVSSASTKGPSVFPLAPSSKSTSGGTAALGCLVKDYFPEPVTVSWNSGALTSGVHTFPAVLQSSGLYSLSSVVTVPSSSLGTQTYICNVNHKPSNTKVDKKVEPKSCDGGGGSGGGGSEVQLLESGGGLVQPGGSLRLSCAASGFTFSTYAMNWVRQAPGKGLEWVSRIRSKYNNYATYYADSVKGRFTISRDDSKNTLYLQMNSLRAEDTAVYYCVRHGNFGNSYVSWFAYWGQGTLVTVSSASVAAPSVFIFPPSDEQLKSGTASVVCLLNNFYPREAKVQWKVDNALQSGNSQESVTEQDSKDSTYSLSSTLTLSKADYEKHKVYACEVTHQGLSSPVTKSFNRGECDKTHTCPPCPAPEAAGGPSVFLFPPKPKDTLMISRTPEVTCVVVDVSHEDPEVKFNWYVDGVEVHNAKTKPREEQYNSTYRVVSVLTVLHQDWLNGKEYKCKVSNKALGAPIEKTISKAKGQPREPQVYTLPPCREEMTKNQVSLWCLVKGFYPSDIAVEWESNGQPENNYKTTPPVLDSDGSFFLYSKLTVDKSRWQQGNVFSCSVMHEALHNHYTQKSLSLSPGK
chain 2: QAVVTQEPSLTVSPGGTVTLTCGSSTGAVTTSNYANWVQEKPGQAFRGLIGGTNKRAPGTPARFSGSLLGGKAALTLSGAQPEDEAEYYCALWYSNLWVFGGGTKLTVLSSASTKGPSVFPLAPSSKSTSGGTAALGCLVKDYFPEPVTVSWNSGALTSGVHTFPAVLQSSGLYSLSSVVTVPSSSLGTQTYICNVNHKESNTKVDKKVEPKSC
chain 3: QVQLVQSGAEVKKPGASVKVSCKASGYTFTEFGMNWVRQAPGQGLEWMGWINTKTGEATYVEEFKGRVTFTTDTSTSTAYMELRSLRSDDTAVYYCARWDFAYYVEAMDYWGQGTTVTVSSASTKGPSVFPLAPSSKSTSGGTAALGCLVKDYFPEPVTVSWNSGALTSGVHTFPAVLQSSGLYSLSSVVTVPSSSLGTQTYICNVNHKPSNTKVDKKVEPKSCDKTHTCPPCPAPEAAGGPSVFLFPPKPKDTLMISRTPEVTCVVVDVSHEDPEVKFNWYVDGVEVHNAKTKPREEQYNSTYRVVSVLTVLHQDWLNGKEYKCKVSNKALGAPIEKTISKAKGQPREPQVCTLPPSREEMTKNQVSLSCAVKGFYPSDIAVEWESNGQPENNYKTTPPVLDSDGSFFLVSKLTVDKSRWQQGNVFSCSVMHEALHNHYTQKSLSLSPGK
chain 4: DIQMTQSPSSLSASVGDRVTITCKASAAVGTYVAWYQQKPGKAPKLLIYSASYRKRGVPSRFSGSGSGTDFTLTISSLQPEDFATYYCHQYYTYPLFTFGQGTKLEIKRTVAAPSVFIFPPSDEQLKSGTASVVCLLNNEYPREAKVQWKVDNALQSGNSQESVTEQDSKDSTYSLSSTLTLSKADYEKHKVYACEVTHQGLSSPVTKSFNRGEC
notes: also called anti-CEA×CD3 bispecific antibody (WO2017055389A1, Roche)
B2: PR005397 (bispecific antibody, human IgG1, lambda, L234A L235A)
chain: EVQLVESGGGLVQPGGSLRLSCAASGFTFSSYWMHWVRQVPGKGLVWVSRISSTGSRTIYADSVKGRFTISRDNAKNTLYLQMNSLRAEDTAVYYCARGEDHDILTGYPIRGQGTTVTVSSGGGGSGGGGSGGGGSEVQLVESGGGLVQPGGSLRLSCAASGFTFSSYWMHWVRQVPGKGLVWVSRISSTGSRTIYADSVKGRFTISRDNAKNTLYLQMNSLRAEDTAVYYCARGEDHDILTGYPIRGQGTTVTVSSASEPKSSDKTHTCPPCPAPEAAGGPSVFLFPPKPKDTLMISRTPEVTCVVVDVSHEDPEVKFNWYVDGVEVHNAKTKPREEQYNSTYRVVSVLTVLHQDWLNGKEYKCKVSNKALPAPIEKTISKAKGQPREPQVCTLPPSREEMTKNQVSLSCAVKGFYPSDIAVEWESNGQPENNYKTTPPVLDSDGSFFLVSKLTVDKSRWQQGNVFSCSVMHEALHNHYTQKSLSLSPGK
heavy: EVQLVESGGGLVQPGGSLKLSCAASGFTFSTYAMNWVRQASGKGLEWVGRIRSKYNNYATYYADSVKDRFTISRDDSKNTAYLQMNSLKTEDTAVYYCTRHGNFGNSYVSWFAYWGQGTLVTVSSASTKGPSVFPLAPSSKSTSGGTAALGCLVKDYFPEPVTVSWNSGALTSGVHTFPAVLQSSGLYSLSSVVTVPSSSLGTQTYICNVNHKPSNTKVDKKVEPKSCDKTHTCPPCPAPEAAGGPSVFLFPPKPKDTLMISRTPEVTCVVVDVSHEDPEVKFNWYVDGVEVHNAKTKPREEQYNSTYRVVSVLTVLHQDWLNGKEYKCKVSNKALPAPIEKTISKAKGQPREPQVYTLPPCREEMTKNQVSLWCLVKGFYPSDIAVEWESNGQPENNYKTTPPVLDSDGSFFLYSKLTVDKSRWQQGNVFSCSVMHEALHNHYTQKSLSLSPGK
light: QAVVTQEPSLTVSPGGTVTLTCRSSTGAVTTSNYANWVQQKPGQAPRGLIGGTNKRAPWTPARFSGSLLGDKAALTLLGAQPEDEAEYFCALWYSNLWVFGGGTKLTVLGQPKAAPSVTLFPPSSEELQANKATLVCLISDFYPGAVTVAWKADSSPVKAGVETTTPSKQSNNKYAASSYLSLTPEQWKSHRSYSCQVTHEGSTVEKTVAPTECS
notes: structure 1; CD3 Fab from PR003886, CLDN18.2 VH from PR007246; LALA
B3: PR005411 (bispecific antibody, human IgG1, lambda, L234A L235A)
chain: B2 chain with T54D, G55A, T190D, G191A
heavy: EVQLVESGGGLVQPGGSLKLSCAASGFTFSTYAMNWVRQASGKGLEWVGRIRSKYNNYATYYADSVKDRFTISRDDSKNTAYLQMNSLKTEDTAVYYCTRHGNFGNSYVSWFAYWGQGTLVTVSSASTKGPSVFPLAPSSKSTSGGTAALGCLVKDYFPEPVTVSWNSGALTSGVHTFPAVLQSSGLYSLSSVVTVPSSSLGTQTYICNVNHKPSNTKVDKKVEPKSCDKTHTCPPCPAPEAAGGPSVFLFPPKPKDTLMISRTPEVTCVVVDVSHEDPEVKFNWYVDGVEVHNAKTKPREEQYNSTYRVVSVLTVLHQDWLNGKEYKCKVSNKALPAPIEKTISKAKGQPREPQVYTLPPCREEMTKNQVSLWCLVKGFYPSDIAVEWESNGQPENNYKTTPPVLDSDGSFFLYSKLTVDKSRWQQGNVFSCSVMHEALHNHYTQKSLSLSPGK
light: B2 light
notes: structure 1; CD3 Fab from PR003886, CLDN18.2 VH from PR007245; LALA
B4: PR006293 (bispecific antibody, human IgG1, lambda)
chain: B2 chain with T54D, G55A, T190D, G191A, G281A
heavy: EVQLLESGGGLVQPGGSLRLSCAASGFTFSTYAMNWVRQAPGKGLEWVSRIRSKYNNYATYYADSVKDRFTISRDDSKSTLYLQMNSLRAEDTAVYYCVRHGNFGNSYVSWFAYWGQGTLVTVSSASTKGPSVFPLAPSSKSTSGGTAALGCLVKDYFPEPVTVSWNSGALTSGVHTFPAVLQSSGLYSLSSVVTVPSSSLGTQTYICNVNHKPSNTKVDKKVEPKSCDKTHTCPPCPAPEAAGAPSVFLFPPKPKDTLMISRTPEVTCVVVDVSHEDPEVKFNWYVDGVEVHNAKTKPREEQYNSTYRVVSVLTVLHQDWLNGKEYKCKVSNKALPAPIEKTISKAKGQPREPQVYTLPPCREEMTKNQVSLWCLVKGFYPSDIAVEWESNGQPENNYKTTPPVLDSDGSFFLYSKLTVDKSRWQQGNVFSCSVMHEALHNHYTQKSLSLSPGK
light: B2 light
notes: structure 1; CD3 Fab from PR001848, CLDN18.2 VH from PR007245; AAA

Experiments:
[1] = molecular target: T4, Biotinylated murine CD3E&D (murine, UniProt P22646 22-108; P04235 22-105, biotin label); test: BLI (Octet), biotinylated CD3 on SA sensor
T4 construct: also called CDD-M82W5
Description: (§1) The binding kinetics between proteins and antibodies was analyzed by the Biolayer Interferometry (BLI) technique using an Octet Red 96e (Fortebio) system. Human CD3E (Acro, CDE-H5223), cynomolgus CD3E (Acro, CDE-C5226) and murine CD3E (Acro, CDE-M5256) were mixed with biotin (Thermo Scientific, A39257) in a molar ratio of 1:3. The mixture was incubated at 4° C. overnight, and then excess biotin was removed to obtain biotinylated CD3E. The rotation speed was set at 1000 rpm for the system. […] After being equilibrated in the buffer for 120 s, the SA sensor with captured CD3 was allowed to bind to 2-fold serially diluted antibodies. […] Finally, the SA sensor was immersed in a 10 mM glycine-hydrochloric acid solution at pH 1.5 for regeneration to elute the antibodies bound to the sensor. […] For the interactions of fast binding and fast dissociation, the “steady state” method was selected to fit the data to obtain KD(M) values.

[2] = molecular target: T5, Human CD3E (Acro, CDE-H5223) (human, UniProt P07766 23-126, biotinylated (mixed with biotin 1:3)); test: BLI (Octet), biotinylated CD3 on SA sensor, 1:1 global fit;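 also: antibodies applied as analyte in 2-fold serial dilutions, with a 180 s association phase followed by a 300 s dissociation phase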
T5 construct: also called Human CD3Ec
Description: as §1

[3] = molecular target: T6, Biotinylated human CD3E&D (human, UniProt P07766 23-126; P04234 22-105, biotin label); test: as above
T6 construct: also called CDD-H82W6
Description: as §1

human CLDN18.2 [4] = molecular target: T7, human CLDN18.2 (human); test: competition FACS on HEK293/hCLDN18.2 cells; competitor 10 nM biotinylated PR000400
T7 construct: the HEK293 line was made with a GenScript plasmid; also called hCLDN18.2
Description: (§2) This example is to study the binding of anti-human CLDN18.2 bispecific antibodies to the epitope region of a human CLDN18.2 antigen. Competitive binding experiments were performed at the cellular level using human CLDN18.2-overexpressing HEK293/hCLDN18.2 cells. […] The mixture was well mixed and incubated at 4° C. for 30 min. 25 μL of the corresponding serially diluted non-biotinylated anti-human CLDN18.2 antibody was added. The mixture was well mixed and incubated at 4° C. for 1 h. The cells in each well were washed twice with 200 μL of pre-cooled FACS buffer (2% BSA in DPBS) and centrifuged at 500 g at 4° C. for 5 min, and then the supernatant was discarded. A fluorescent secondary antibody (Jackson ImmunoResearch, 016-540-084, 1:500) was added. The mixture was incubated at 4° C. in the absence of light for 1 h. The cells in each well were washed twice with 200 μL of pre-cooled FACS buffer (2% BSA in DPBS) and centrifuged at 500 g at 4° C. for 5 min, and then the supernatant was discarded. Finally, the cells in each well were resuspended in 200 μL of pre-cooled FACS buffer, and the fluorescence signal values were read using a ACEA_NovoCyte.

human CLDN18.2 [5] = molecular target: T7, human CLDN18.2; test: cell-based or functional assay
[6] = molecular target: CLDN18.2 of SNU620 cells (methionine to leucine at amino acid 149) (human, UniProt P56856-2 1-261); test: cell-based or functional assay
Human CD16a(F) = Human CD16a(F) (human, UniProt P08637 17-208); test: BLI (Octet), antibody on FAB2G sensor
Description: (§3) The binding kinetics between proteins and antibodies was analyzed by the Biolayer Interferometry (BLI) technique using an Octet Red 96e (Fortebio) system. The rotation speed was set at 1000 rpm for the system. […] After equilibrated in the buffer for 120 s, the FAB2G sensor was allowed to bind to 2-fold serially diluted human Fc receptor protein. Finally, the FAB2G sensor was immersed in a 10 mM glycine-hydrochloric acid solution at pH 1.5 for regeneration to elute the proteins bound to the sensor. The affinity assays of antibodies for FcRn were performed under the conditions of both pH 6.0 buffer and pH 7.4 buffer. […] For the interactions of fast binding and fast dissociation, the “steady state” method was selected to fit the data to obtain KD(M) values.

Human CD32b = molecular target: T1, Human CD32b; test: BLI (Octet), antibody on FAB2G sensor
Description: as §3

Human CD32a(H) = molecular target: T2, Human CD32a(H); test: BLI (Octet), antibody on FAB2G sensor
Description: as §3

Human CD16a(V) [7] = molecular target: T8, Human CD16a(V) (human, UniProt P08637 17-208); test: BLI (Octet), antibody on FAB2G sensor, steady state fit
Description: as §3

human CLDN18.2 [8] = molecular target: T7, human CLDN18.2; test: FACS on HEK293/hCLDN18.2 cells
Description: (§4) Antibodies were assayed for binding affinity by FACS. Test cells include HEK293/hCLDN18.2, HEK293/hCLDN18.1, NUGC4_D8 and Jurkat cells. […] The cell density was adjusted to 10⁶ cells/mL, and 50 μL of the cell suspension was added to each well of a 96-well plate. Antibodies were diluted to different concentrations with FACS buffer, and 50 μL of the antibody dilution was added to each well of the 96-well plate. After 2 h of incubation at 4° C., the plate was washed twice with FACS buffer. […] After 1 h of incubation at 4° C., the plate was washed twice with FACS buffer. The cells were resuspended in fixative solution, and then the fluorescence of the cells was monitored using an FACS instrument (ACEA NovoCyte).

human CLDN18.2 [9] = molecular target: T7, human CLDN18.2; test: FACS on NUGC4_D8 cells
human CLDN18.2 [10] = molecular target: T7, human CLDN18.2; test: competition FACS on HEK293/hCLDN18.2 cells; competitor 200 nM biotinylated PR004549
Description: as §2

[11] = molecular target: T9, human CD3 on Jurkat cells (human, UniProt P07766 23-207); test: FACS on Jurkat cells (CD3)
T9 construct: whole, on cells; on cells it stands in the whole CD3/TCR complex; also called CD3-expressing cells
Description: as §4

Human FcRn = Human FcRn (human, UniProt P55899 24-297; P61769 21-119); test: BLI (Octet), antibody on FAB2G sensor, pH 6.0, 1:1 global fit; pH 6.0; 400-25 nM
Description: as §3

Human CD64 [12] = molecular target: T10, Human CD64 (human, UniProt P12314 16-288, limits assumed); test: BLI (Octet), antibody on FAB2G sensor, 1:1 global fit
T10 construct: bought recombinant protein
Description: as §3

[13] = molecular target: T9, human CD3 on Jurkat cells; test: FACS on Jurkat cells
Description: as §4

Human CD16a(V) [14] = molecular target: T8, Human CD16a(V); test: BLI (Octet), antibody on FAB2G sensor
Description: as §3

Human CD64 [15] = molecular target: T10, Human CD64; test: BLI (Octet), antibody on FAB2G sensor
Description: as §3

[16] = molecular target: T3, Cynomolgus CD3E (Acro, CDE-C5226); test: BLI (Octet), biotinylated CD3 on SA sensor, 1:1 global fit;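 also: antibodies applied as analyte in 2-fold serial dilutions, with a 180 s association phase followed by a 300 s dissociation phase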
Description: as §1

Chain of Human FcRn (P55899 24-297 limits assumed, chain 1 of 2): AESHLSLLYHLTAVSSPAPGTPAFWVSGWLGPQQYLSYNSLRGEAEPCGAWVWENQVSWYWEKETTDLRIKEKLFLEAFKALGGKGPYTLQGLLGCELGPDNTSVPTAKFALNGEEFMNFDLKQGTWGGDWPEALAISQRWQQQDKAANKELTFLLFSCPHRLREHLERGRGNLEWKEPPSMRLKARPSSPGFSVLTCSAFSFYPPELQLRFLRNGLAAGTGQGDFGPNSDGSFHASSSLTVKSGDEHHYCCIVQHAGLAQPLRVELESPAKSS
Chain of Human FcRn (P61769 21-119 limits assumed, chain 2 of 2): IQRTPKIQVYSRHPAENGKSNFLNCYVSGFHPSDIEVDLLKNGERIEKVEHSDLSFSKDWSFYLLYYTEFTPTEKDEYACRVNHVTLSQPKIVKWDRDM
Chain of CLDN18.2 of SNU620 cells (methionine to leucine at amino acid 149) (P56856 other isoform, or with tags, fused parts or gaps limits assumed): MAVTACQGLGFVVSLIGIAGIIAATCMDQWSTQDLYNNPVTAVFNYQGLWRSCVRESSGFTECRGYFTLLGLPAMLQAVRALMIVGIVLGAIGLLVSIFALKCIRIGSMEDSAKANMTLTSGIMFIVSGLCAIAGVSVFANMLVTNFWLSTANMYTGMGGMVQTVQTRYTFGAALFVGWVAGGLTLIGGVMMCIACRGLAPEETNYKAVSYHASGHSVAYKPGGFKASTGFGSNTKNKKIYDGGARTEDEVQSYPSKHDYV
T8 sequence (P08637 17-208 F176V limits assumed): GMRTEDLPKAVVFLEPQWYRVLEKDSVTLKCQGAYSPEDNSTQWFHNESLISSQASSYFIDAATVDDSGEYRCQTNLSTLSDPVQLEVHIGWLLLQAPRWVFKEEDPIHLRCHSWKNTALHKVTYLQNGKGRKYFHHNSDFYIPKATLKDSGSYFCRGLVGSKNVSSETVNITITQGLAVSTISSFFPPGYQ
T9 sequence (P07766 23-207): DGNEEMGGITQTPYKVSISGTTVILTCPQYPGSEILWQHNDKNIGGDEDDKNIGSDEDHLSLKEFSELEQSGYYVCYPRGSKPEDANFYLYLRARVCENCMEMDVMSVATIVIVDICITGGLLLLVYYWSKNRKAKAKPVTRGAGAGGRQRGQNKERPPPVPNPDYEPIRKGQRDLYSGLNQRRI
Chain of Human CD16a(F) (P08637 17-208 limits assumed): as the sequence (P08637 17-208 F176V limits assumed) above, with V160F counted along it
T6 sequence (P07766 23-126, chain 1 of 2): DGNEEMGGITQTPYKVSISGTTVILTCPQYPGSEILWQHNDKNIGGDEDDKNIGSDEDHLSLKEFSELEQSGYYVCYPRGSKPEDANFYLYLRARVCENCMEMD
T6 sequence (P04234 22-105, chain 2 of 2): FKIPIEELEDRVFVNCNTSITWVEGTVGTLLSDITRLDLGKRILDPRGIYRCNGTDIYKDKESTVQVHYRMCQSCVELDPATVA
T5 sequence (P07766 23-126 limits assumed): as the sequence (P07766 23-126, chain 1 of 2) above
T10 sequence (P12314 16-288 limits assumed): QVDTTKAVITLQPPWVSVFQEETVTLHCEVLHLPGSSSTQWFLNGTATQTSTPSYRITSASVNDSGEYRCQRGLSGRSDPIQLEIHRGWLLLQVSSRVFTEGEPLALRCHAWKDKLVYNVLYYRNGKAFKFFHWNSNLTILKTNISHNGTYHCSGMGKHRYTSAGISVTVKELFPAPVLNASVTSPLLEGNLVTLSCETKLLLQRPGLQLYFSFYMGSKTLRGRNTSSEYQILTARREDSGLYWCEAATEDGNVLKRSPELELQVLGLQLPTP
T4 sequence (P22646 22-108, chain 1 of 2): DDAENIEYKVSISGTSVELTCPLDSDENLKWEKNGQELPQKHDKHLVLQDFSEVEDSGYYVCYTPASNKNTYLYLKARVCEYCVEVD
T4 sequence (P04235 22-105, chain 2 of 2): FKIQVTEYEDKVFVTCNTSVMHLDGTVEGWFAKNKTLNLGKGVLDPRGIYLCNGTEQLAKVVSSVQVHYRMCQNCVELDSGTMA

Binder	Kd [2] [nM]	koff [2] [s⁻¹]	kon [2] [M⁻¹ s⁻¹]	IC50 (human CLDN18.2 [4]) [nM]	Maximum inhibition rate (%) (human CLDN18.2 [4])	TDCC, Titer EC50 (pM), NUGC4_D8 (human CLDN18.2 [5]) [pM]	TDCC, Titer EC50 (pM), SNU620 [6] [pM]	binding result (Human CD16a(F))	binding result (Human CD32b)	binding result (Human CD32a(H))	Kd (Human CD16a(V) [7]) [nM]	EC50 (human CLDN18.2 [8]) [nM]	EC50 (human CLDN18.2 [9]) [nM]	IC50 (human CLDN18.2 [10]) [nM]	Maximum inhibition rate (%) (human CLDN18.2 [10])	Kd (Human FcRn) [nM]	koff (Human FcRn) [s⁻¹]	kon (Human FcRn) [M⁻¹ s⁻¹]	Kd (Human CD64 [12]) [nM]	koff (Human CD64 [12]) [s⁻¹]	other results
B1	30.8	0.00225	73100	–	–	–	–	–	–	–	–	–	–	–	–	–	–	–	–	–	binding result [1]: no binding (tested: 120-7.5 nM); Kd [3]: 33.7 nM; koff [3]: 0.00137 s⁻¹; kon [3]: 40700 M⁻¹ s⁻¹
B2	–	–	–	81.8	98.4	10	31.6	no binding (tested: 10000-625 nM)	no binding (tested: 10000-625 nM)	no binding (tested: 10000-625 nM)	1800	12.8	27.5	67.5	48	182	0.0586	322000	50.6	0.0438	binding result [11]: binds; kon (Human CD64 [12]): 866000 M⁻¹ s⁻¹
B3	–	–	–	122	96.2	11	38.5	no binding (tested: 10000-625 nM)	no binding (tested: 10000-625 nM)	no binding (tested: 10000-625 nM)	2300	16	20.5	74.4	48	215	0.0644	300000	47.1	0.0417	EC50 [13]: 85.9 nM; kon (Human CD64 [12]): 885000 M⁻¹ s⁻¹
B4	31.7	0.00216	68100	132	97.8	87	18.5	no binding (tested: 10000-625 nM)	no binding (tested: 10000-625 nM)	no binding (tested: 10000-625 nM)	–	–	78	100	48	217	0.0632	291000	–	–	TDCC, Titer EC50 (pM), IM95 (human CLDN18.2 [5]): 460 pM; binding result (Human CD16a(V) [14]): no binding (tested: 6000-375 nM); binding result (Human CD64 [15]): no binding (tested: 800-50 nM); EC50 [13]: 65 nM; Kd [16]: 32.4 nM; koff [16]: 0.00197 s⁻¹; kon [16]: 60700 M⁻¹ s⁻¹

— patent US20250340631A1 (HARBOUR BIOMED SHANGHAI, published 2025)
